The values below come from patent US20180155451A1 (published 2018).

Experiment [1] concerns the target T1, FcgRIIb extracellular domain with C-terminal His tag (human, UniProt P31994 43-217).
T1 construct: extracellular domain; also called FcγRIIb; not shown: His tag attached to the C terminus
T1 sequence (looked up): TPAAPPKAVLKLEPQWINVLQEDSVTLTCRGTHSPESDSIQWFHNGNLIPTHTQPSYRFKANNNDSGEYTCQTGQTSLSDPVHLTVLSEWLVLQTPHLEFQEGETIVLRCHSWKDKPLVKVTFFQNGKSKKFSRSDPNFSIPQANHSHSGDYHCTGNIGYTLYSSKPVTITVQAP
In words: SPR (Biacore), antibody captured on chip, FcγR extracellular domain as analyte, kinetic analysis. The method, then:
(§1) Analysis of interaction between obj ective antibody and the FcγR was carried out using Biacore T100 (GE Healthcare), Biacore T200, Biacore A100, and Biacore 4000. HBS-EP+ (GE Healthcare) was used as the running buffer, and the measurement temperature was set to 25° C. Chips produced by immobilizing the antigen peptide by the amine coupling method to a Series S sensor Chip CM5 (GE Healthcare), chips produced by allowing preliminarily biotinylated antigen peptides to interact with and immobilize onto a Series S Sensor Chip SA (certified) (GE Healthcare), chips produced by immobilizing Protein L (ACTIGEN, BioVision) to Series S Sencor Chip CM5 (GE Healthcare), or chips produced by immobilizing Protein A/G (Thermo Scientific) to Series S Sencor Chip CM5 (GE Healthcare) were used. Antibodies of interest were captured onto these chips, and allowed to interact to each FcγR diluted with running buffer. To regenerate and repeatedly use the chip, the antibodies captured onto the chip were washed off by reacting 10 mM glycine-HCl, pH 1.5.
A general note: In SPR one partner is held on a chip, and binding of the other changes the refractive index at the surface.

Experiment [2] deals with T2, FcgRIIa H extracellular domain with C-terminal His tag (human, UniProt P12318 34-217).
T2 construct: extracellular domain; also called FcγRIIa H; FcγRIIa type H; not shown: His tag attached to the C terminus
T2 sequence (looked up): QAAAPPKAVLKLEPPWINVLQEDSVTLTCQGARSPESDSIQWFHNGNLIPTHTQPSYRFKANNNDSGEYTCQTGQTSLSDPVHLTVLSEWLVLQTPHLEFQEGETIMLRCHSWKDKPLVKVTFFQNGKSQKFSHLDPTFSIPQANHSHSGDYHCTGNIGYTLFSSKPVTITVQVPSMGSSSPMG
The experiment is described as above. The method, then: as §1

For experiment [3], the target named is T3, FcgRIIIa F extracellular domain with C-terminal His tag (human, UniProt P08637 17-208).
T3 construct: extracellular domain; also called FcγRIIIa F; FcγRIIIa (F158); not shown: His tag attached to the C terminus
T3 sequence (P08637 17-208): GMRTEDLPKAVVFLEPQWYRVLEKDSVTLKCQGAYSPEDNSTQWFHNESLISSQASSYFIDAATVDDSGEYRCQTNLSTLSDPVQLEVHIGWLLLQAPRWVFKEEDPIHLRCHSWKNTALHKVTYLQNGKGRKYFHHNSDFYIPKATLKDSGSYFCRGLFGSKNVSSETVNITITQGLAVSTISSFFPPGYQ
The description is as above. The method, then:
as §1

For experiment [4], the target named is T4, FcgRIIIa V extracellular domain with C-terminal His tag (human, UniProt P08637 17-208).
T4 construct: extracellular domain; also called FcγRIIIa V; FcγRIIIa (V158); not shown: His tag attached to the C terminus
T4 sequence (P08637 17-208 F176V): as the sequence (P08637 17-208) above, with F160V counted along it
Described as above. The method, then: as §1

In experiment [5] the target is T5, FcgRIIa R extracellular domain with C-terminal His tag (human, UniProt P12318 34-217).
T5 construct: extracellular domain; also called FcγRIIa R; FcγRIIa type R; not shown: His tag attached to the C terminus
T5 sequence (looked up): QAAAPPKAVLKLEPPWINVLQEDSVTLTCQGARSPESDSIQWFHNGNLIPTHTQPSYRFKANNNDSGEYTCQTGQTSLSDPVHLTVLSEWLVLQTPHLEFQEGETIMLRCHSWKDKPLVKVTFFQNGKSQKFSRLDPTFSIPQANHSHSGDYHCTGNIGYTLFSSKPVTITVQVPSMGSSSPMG
Described as above. The method, then: as §1

Experiment [6] concerns the target T6, FcgRIa extracellular domain with C-terminal His tag (human, UniProt P12314 16-292).
T6 construct: extracellular domain; Expressed in FreeStyle293 cells; used as analyte in Biacore; also called FcγRIa; FcγRI; not shown: His tag attached to the C terminus
Described as above. The method, then:
as §1

In experiment [7] the target is T7, FcγRIIa R (extracellular domain, C-terminal His tag) (human, UniProt P12318 34-217).
T7 construct: extracellular domain; Soluble receptor used as analyte in Biacore; also called FcgRIIa R; 2aR; not shown: His tag attached to the C terminus
T7 sequence (looked up): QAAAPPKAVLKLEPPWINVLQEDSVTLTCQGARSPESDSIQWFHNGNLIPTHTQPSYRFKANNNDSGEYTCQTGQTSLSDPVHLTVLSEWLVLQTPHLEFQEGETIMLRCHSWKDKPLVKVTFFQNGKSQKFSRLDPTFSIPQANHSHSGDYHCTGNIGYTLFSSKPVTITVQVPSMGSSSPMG
In words: SPR (Biacore T100), antibody captured on antigen peptide chip, FcγR as analyte; relative binding amount. The method, then: (§2) The heterodimerized antibodies He Abs in which one of the H chains was introduced with an alteration were assayed for their binding activities to each activating FcγR and inhibitory FcγR according to the method described in Example 4. […] The activating FcγRs in FIGS. 26, 27, 28, and 29 are FcγRIa, FcγRIIa (R), FcγRIIa (H), and FcγRIIIa, respectively.
(§3) Analysis of interaction between objective antibody and the FcγR was carried out using Biacore T100 (GE Healthcare). HBS-EP+ (GE Healthcare) was used as the running buffer, and the measurement temperature was set to 25° C. Chips produced by immobilizing the antigen peptide by the amine coupling method to a Series S Sencor Chip CM5 (GE Healthcare), or alternatively, chips produced by allowing preliminarily biotinylated antigen peptides to interact with and immobilize onto a Series S Sensor Chip SA (certified) (GE Healthcare) were used. Antibodies of interest were captured onto an antigen peptide-immobilized chip, and allowed to interact to each FcγR diluted with running buffer. To regenerate and repeatedly use the chip, the antibodies captured on the chip were washed off by reacting 10 mM glycine-HCl, pH 1.5.

Experiment [8] deals with T8, FcγRIIb (extracellular domain, C-terminal His tag) (human, UniProt P31994 43-217).
T8 construct: extracellular domain; Soluble receptor used as analyte in Biacore; also called FcgRIIb; 2b; not shown: His tag attached to the C terminus
T8 sequence (looked up): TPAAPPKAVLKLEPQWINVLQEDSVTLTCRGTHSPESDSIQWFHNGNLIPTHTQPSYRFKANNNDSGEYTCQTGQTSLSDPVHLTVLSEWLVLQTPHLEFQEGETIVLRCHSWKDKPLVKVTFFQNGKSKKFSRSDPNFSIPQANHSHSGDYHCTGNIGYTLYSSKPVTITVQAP
The description is as above. The method, then: as §2, §3

Experiment [9] concerns the target T7, FcγRIIa R (extracellular domain, …). In words: SPR (Biacore); He/Con for FcγRIIa R divided by He/Con for FcγRIIb. The method, then:
as §2, §3

The target of experiment [10] is T2, FcgRIIa H extracellular domain with …. In words: ratio of SPR (Biacore) KDs, FcγRIIb as reference; antibody captured on chip, FcγR as analyte. The method, then: (§4) These antibodies were assessed for the binding activity to each FcγR according to the method described in Reference Example 2.
as §3
(§5) The FcγR-binding activity of each antibody was assessed primarily using as an indicator the FcγR-binding activity and dissociation constant for FcγR.

Experiment [11] deals with T5, FcgRIIa R extracellular domain with …. Described as above. The method, then:
as §4, §3, §5

T6 sequence (P12314 16-292): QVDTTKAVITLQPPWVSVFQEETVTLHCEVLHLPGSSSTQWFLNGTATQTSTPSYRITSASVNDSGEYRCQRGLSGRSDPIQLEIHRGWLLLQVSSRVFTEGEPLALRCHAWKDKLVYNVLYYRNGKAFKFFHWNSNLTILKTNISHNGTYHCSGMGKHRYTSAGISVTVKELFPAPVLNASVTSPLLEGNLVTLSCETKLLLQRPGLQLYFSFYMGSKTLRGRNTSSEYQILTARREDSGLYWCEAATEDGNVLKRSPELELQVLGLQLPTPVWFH

B1: H240-G1d/L73-k0 (antibody, human IgG1, kappa)
heavy: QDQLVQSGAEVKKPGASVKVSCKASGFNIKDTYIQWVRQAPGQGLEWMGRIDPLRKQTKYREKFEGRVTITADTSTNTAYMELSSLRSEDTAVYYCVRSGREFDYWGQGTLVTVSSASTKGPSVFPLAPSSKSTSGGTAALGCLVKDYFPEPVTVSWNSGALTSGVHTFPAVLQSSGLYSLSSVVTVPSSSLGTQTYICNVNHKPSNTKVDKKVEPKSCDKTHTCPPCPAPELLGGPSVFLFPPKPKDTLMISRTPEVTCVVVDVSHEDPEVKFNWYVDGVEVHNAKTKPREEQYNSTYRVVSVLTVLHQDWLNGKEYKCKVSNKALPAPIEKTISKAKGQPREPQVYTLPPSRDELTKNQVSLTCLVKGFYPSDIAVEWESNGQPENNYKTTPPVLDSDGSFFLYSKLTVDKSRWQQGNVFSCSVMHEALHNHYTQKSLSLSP
light: DIQMTQSPSSLSASVGDRVTITCRASQDIHKYIAWYQQKPGQAPRLLIQYTSTLQPGVPSRFSGSGSGTDYTFTISSLQPEDIATYYCLQYEQLRTFGGGTKVEIKRTVAAPSVFIFPPSDEQLKSGTASVVCLLNNFYPREAKVQWKVDNALQSGNSQESVTEQDSKDSTYSLSSTLTLSKADYEKHKVYACEVTHQGLSSPVTKSFNRGEC
notes: Anti-epiregulin (EREG) IgG1; also called native IgG1 (anti-epiregulin)
For B1, the Kd is 6000 nM in experiment [1]; 660 nM in experiment [2]; 1400 nM in [3]; 310 nM in [4]; 880 nM in [5]; 0.23 nM in experiment [6].

B2: heterodimerized antibody GpH7-A5/GpH7-B3 variant L328_13S/GpL16-k0 (antibody, human IgG1, kappa)
heavy 1: not shown
heavy 2: not shown
light: DIVMTQSPLSLPVTPGEPASISCQASESLVHSNRNTYLHWYLQKPGQSPQLLIYKVSNRFSGVPDRFSGSGSGTDFTLKISRVEAEDVGVYYCSQNTHVPPTFGQGTKVEIERTVAAPSVFIFPPSDEQLKSGTASVVCLLNNFYPREAKVQWKVDNALQSGNSQESVTEQDSKDSTYSLSSTLTLSKADYEKHKVYACEVTHQGLSSPVTKSFNRGEC
notes: Anti-glypican-3 IgG1 with the alteration in only one H chain (the GpH7-B3 chain); also called He Ab
In the case of B2, the “He/Con_2aR (IIaR binding)” value in [7] is 117 % of control (GpH7-A5/GpH7-B3/GpL16-k0 = 100). The “He/Con_2b (IIb binding)” value in experiment [8] is 149 % of control (GpH7-A5/GpH7-B3/GpL16-k0 = 100). The “He_2aR/2b (IIaR/IIb)” value in experiment [9] was found to be 0.78 ratio.

B3: GpH7-Kn056/GpH7-Hl055/GpL16-k0 (antibody, human IgG1, kappa)
heavy 1: QVQLVQSGAEVKKPGASVTVSCKASGYTFTDYEMHWIRQPPGEGLEWIGAIDPKTGDTAYSESFQDRVTLTADKSTSTAYMELSSLTSEDTAVYYCTRFYSYTYWGQGTLVTVSSASTKGPSVFPLAPSSKSTSGGTAALGCLVKDYFPEPVTVSWNSGALTSGVHTFPAVLQSSGLYSLSSVVTVPSSSLGTQTYICNVNHKPSNTKVDKKVEPKSCDKTHTCPPCPAPEYYAGPSVFLFPPKPKDTLMISRTPEVTCVVVDVSDEDPEVKFNWYVDGVEVHNAKTKPREELYNATYRVVSVLTVLHQDWLNGKEYKCKVSNKALPAPIEKTISKAKGQPREPQVCTLPPSRDELTKNQVSLWCLVKGFYPSDIAVEWESNGQPENNYKTTPPVLDSDGSFFLYSKLTVDKSRWQQGNVFSCSVMHEALHNHYTQKSLSLSP
heavy 2: QVQLVQSGAEVKKPGASVTVSCKASGYTFTDYEMHWIRQPPGEGLEWIGAIDPKTGDTAYSESFQDRVTLTADKSTSTAYMELSSLTSEDTAVYYCTRFYSYTYWGQGTLVTVSSASTKGPSVFPLAPSSKSTSGGTAALGCLVKDYFPEPVTVSWNSGALTSGVHTFPAVLQSSGLYSLSSVVTVPSSSLGTQTYICNVNHKPSNTKVDKKVEPKSCDKTHTCPPCPAPELLAGPDVFLFPPKPKDTLMISRTPEVTCVVVDVSHEDPEVKFNWYVDGVEVHNAKTKPREELYNSTYRVVSVLTVLHQDWLNGKEYKCKVSNKALPMPEEKTISKAKGQPREPQVYTLPPSRCELTKNQVSLSCAVKGFYPSDIAVEWESNGQPENNYKTTPPVLDSDGSFFLVSKLTVDKSRWQQGNVFSCSVMHEALHNHYTQKSLSLSP
light: DIVMTQSPLSLPVTPGEPASISCQASESLVHSNRNTYLHWYLQKPGQSPQLLIYKVSNRFSGVPDRFSGSGSGTDFTLKISRVEAEDVGVYYCSQNTHVPPTFGQGTKVEIERTVAAPSVFIFPPSDEQLKSGTASVVCLLNNFYPREAKVQWKVDNALQSGNSQESVTEQDSKDSTYSLSSTLTLSKADYEKHKVYACEVTHQGLSSPVTKSFNRGEC
notes: Knob chain L234Y/L235Y/G236A/H268D/Q295L/S298A; hole chain G236A/S239D/Q295L/A330M/I332E; also called Kn056/Hl055
For B3, in experiment [10], the “A/I ratio (KD for FcγRIIb / KD for FcγRIIa H)” value is 8.7. Further, in [11], the “A/I ratio (KD for FcγRIIb / KD for FcγRIIa R)” value came to 16.

One may read the Kd as the concentration at which binding is half-saturated. Lower therefore signals higher affinity.
